Values quoted from earlier work as cited in article PMC12892997.

Experiments:
[1] = target: SARS-CoV-2 spike protein (Severe acute respiratory syndrome coronavirus 2) (UniProt P0DTC2)
[2] = target: SARS-CoV-2 spike protein RBD (Severe acute respiratory syndrome coronavirus 2) (UniProt P0DTC2)

Chain of GRP78 (P11021 19-654): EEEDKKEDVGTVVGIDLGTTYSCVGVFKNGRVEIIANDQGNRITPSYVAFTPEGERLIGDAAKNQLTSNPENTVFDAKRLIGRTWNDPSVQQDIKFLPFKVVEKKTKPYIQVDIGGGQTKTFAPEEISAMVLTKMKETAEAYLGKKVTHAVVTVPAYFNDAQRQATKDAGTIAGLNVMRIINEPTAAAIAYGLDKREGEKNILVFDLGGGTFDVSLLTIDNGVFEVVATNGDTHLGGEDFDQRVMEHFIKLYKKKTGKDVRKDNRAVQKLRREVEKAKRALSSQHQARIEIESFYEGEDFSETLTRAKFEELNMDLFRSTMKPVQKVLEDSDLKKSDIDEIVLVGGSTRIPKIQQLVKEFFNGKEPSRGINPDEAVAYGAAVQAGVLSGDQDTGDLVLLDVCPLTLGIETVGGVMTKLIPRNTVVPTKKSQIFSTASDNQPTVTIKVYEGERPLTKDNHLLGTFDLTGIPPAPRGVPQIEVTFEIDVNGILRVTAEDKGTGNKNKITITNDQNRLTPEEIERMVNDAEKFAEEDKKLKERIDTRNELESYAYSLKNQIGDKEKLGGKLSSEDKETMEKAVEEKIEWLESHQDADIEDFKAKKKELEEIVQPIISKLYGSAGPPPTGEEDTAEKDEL

Row | Substance | Kd [1] [µM] | Kd [2] [µM]
1 | GRP78 (from UniProt P11021) | 0.0552 | 
2 | CD4 N-terminal domain (from UniProt P01730) |  | 0.0245
